Laboratory results reported in patent US20100278801A1 (published 2010).
Each block holds one binder with its values, some of them ahead of it.

Experiments:
[1] = target: 120-G564S/320.1; assay: Eu-ligand binding
[2] = target: 120-G564S/320.1; assay: biotin-ligand binding
[3] = target: HFD300.1 (HFD300-132K) Wild Type; assay: Eu-ligand saturation binding
[4] = target: HFD300.1; assay: 125I-ligand binding

B1: EU-EGF (ligand)
chain: NSDSECPLSHDGYCLHDGVCMYIEALDKYACNCVVGYIGERCQYRDLKWWELR
Kd [1]: 0.877 nM

B4: NRG1β (ligand)
chain: SHLVKCAEKEKTFCVNGGECFMVKDLSNPSRYLCKCPNEFTGDRCQNYVMASFYKHLGIEFMEAE
Kd [4]: 12.1 nM

More lines, now with the values ahead:

Kd [2]: 0.211 nM
B2: HB-EGF-biotin (ligand)
chain: DLQEADLDLLRVTLSSKPQALATPNKEEHGKRKKKGKGLGKKRDPCLRKYKDFCIHGECKYVKELRAPSCICHPGYHGERCHGLSL

Kd [3]: 3.11 nM
B3: Eu-NRG1β1 (ligand)
chain: SHLVKCAEKEKTFCVNGGECFMVKDLSNPSRYLCKCPNEFTGDRCQNYVMASFYKHLGIEFMEAE
